# ± gives the half width of the 95% confidence interval.
# Experiment: folding stability dG unfold from trypsin proteolysis; higher = more stable
# Procedure, shortened: (§1)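 Bayesian fitting of sequencing counts gave K50 for each design. Unfolding free energy followed by setting this against a sequence-predicted unfolded-state K50 and a shared folded-state K50, either per protease or with trypsin and chymotrypsin combined. The designs, under 80 residues and lacking cysteine, were digested in a PA-tagged cDNA display format at 11 threefold-diluted protease concentrations and without protease, and only those with AlphaFold2 dimer inter-PAE above 15 were kept.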
row,Sequence,folding stability dG unfold [kJ/mol]
1,SAGGSAGGSAGGGSPIPTTTLTTVTYGSSSSLLSSAKGPSSVPYSLPSSLGSSVSTTVVGSAGGSAGGSAGG [r7_141_JUSTAS],-3.81 ± 1.26
2,SAGGSASVSDVTTTTVTVTVEVTEDPATGLQRLTATHPDLSFERLVPAGTIPADTTVTLDVTVTTGSAGGSA [r15_190_JUSTAS],0.391 ± 0.117
3,SAGGSAGGSAGMTVPTSVEVSPDGTVRVRQLRWVRHGDGWRPFTFTVTLPISDDALKALKSAGGSAGGSAGG [r17_415_TrMRF],4.25 ± 0.159
4,SAGSIEIYIIYPPEDPDQPPTEEEIRSIARSLARQLGLPPKDFPIDVEWRRIDPEDGIYVYEITIEFPSAGG [r19_244_TrROS],11.5 ± 0.247
5,SAGGSAGGSAKKVIKAKILEVKVLPDGTGLVKLEGEDGLEVVIPLSILENISPDAIVTIEASAGGSAGGSAG [r3_315_TrMRF],3.83 ± 0.23
6,SMKVTLDGKGSVTTMPAEQLEVLIKELKEKGYKVKILSEEPDPNSDTVNYTIEITPPKPEKEEFENEELKSA [r9_448_JUSTAS],3.97 ± 0.163
7,SAGGSAGGSAGMVKLRFEVKFKIKLLGEGETNEVVEVDVKVEFEVTLPPFKVRPDGSLLESAGGSAGGSAGG [r11_558_TrMRF],13.4 ± 1
8,GEFVSVESVERLPDGTLVVKIKYKPPSPDTPVTVTVSHPDSSVTFTMDPTSSTITVTVPPSVSDVSVTVVGS [r1_428_JUSTAS],10.9 ± 0.418
9,SAGGSAGGSAGGSKKYKAKIVSVEYDEETKEVTIKVKLENGEEKTITMSLEELKEIELPSAGGSAGGSAGGS [r4_51_TrROS_Hall],8.24 ± 0.339
10,SAGPWRIKEVDPDSYTIEIRFGDRPIEIKIPPGKEPSIMIEMDPDGHFQLTIRVPDRTRTFTIPFDDIRSAG [r5_500_TrROS],3.6 ± 0.544
11,SAGGSAGGSAEKPPPPVVTLRVRVVVEVDGKLYVATAEVRLVDGKLEIRVRIEEVPPGAPVSAGGSAGGSAG [r3_49_TrROS_Hall],15.5 ± 0.502
12,SAGGSAGGSAMEITITVPKENEEEVLEAAKKALEELGIEEVKVEKLEDGTYKVTARVKPGLSAGGSAGGSAG [r3_335_TrROS_Hall],1.36 ± 0.502
13,SAGGSAGGSGNATVMLMFPIEISITVMEWDNGKPKMKTQEIEIWVMIMIPVPPPPDPGDPEWNSAGGSAGGS [r12_713_TrROS],11.9 ± 0.318
14,SAGTIVFSRDELKELGIPEDMTVEEIKQKILDRLKEEGYEVKITKIEVVEVDEEEGRVLVRITIEVKKPSAG [r5_23_TrROS_Hall],15.4 ± 0.586
15,SAGGSAGGMTPEEERRKKESPVPPVNKVTVKIPVPSSVSEEVAKEIAEKLEKESGAKKVEVILPSAGGSAGG [r6_517_JUSTAS],1.08 ± 0.176
16,SAGGSAGGEELAKRLKELFPNAKIVEIKYDKKTKKVTIKVELEPGMSEEQRERLRKLLEELLKKSAGGSAGG [r6_97_TrROS_Hall],13.1 ± 0.711
17,SAGMYLVKITVTNEDGEKKEITVLVEAETEEEAREAAEELARELAEKYPEKIVEVKVEVVKLPPEVEPSAGG [r19_335_TrROS_Hall],17.2 ± 0.795
18,SAGMKPGEVLTVEDIPPGALLRNPKGESLGPVVEVEVRALEDSVEAVVTFPDGSKATVTFPADDIVLDPSAG [r5_850_TrMRF],4.38 ± 0.795
19,SAGGMKIEVRPLPGDGFVVRLPGDVVALIDPSTGEAVAFFPDGSVARLTITRDPDRPEFTITIEPVGSAGGS [r8_186_TrMRF],7.4 ± 0.247
20,SAPVIEITEVTFNPDGSVEVTLVIPFPDDPEIPPEEIAKAIKEAFGFEEVTVEPIPETGAWRITLRAPGSAG [r14_228_TrMRF],14.2 ± 0.586
21,SAMANITANYYDPETGKVLAKDLPLPNGDEVHVTPNPVTGTVTVEWDGPEEALEVIKAALPPDWKIYPLSAG [r14_252_TrMRF],2.98 ± 0.146

row,Sequence,folding stability dG unfold [kJ/mol]
1,SAGGGMNEKVIEIEVTVTAPDGKVTTNPTTVVSNSLEEVKASIKASIPPNWSITVTVLKTKSLKEVLSSAGG [r13_513_JUSTAS],2.79 ± 0.126
2,SAGGSAGGSKKPKITITIEILVKNEDGKLYLFRIEIEINENGEISIKMEIFELKDIKPGDILLSAGGSAGGS [r12_38_TrROS_Hall],11 ± 0.795
3,SAGGSAGGGRAEILVEPVEPEPRARVVIRLEGSGRLVVFPVEEPLEPEHVEEAVEAAIKALEENSAGGSAGG [r6_330_TrMRF],-1.09 ± 0.711
4,SAGGSEFIPVVAEFPEDVTPEDVARAVRELERAGFVVERVEVERFPDPDGRERYRVRVVLRRPEELSAGGSA [r2_442_TrMRF],14.8 ± 0.339
5,SAGSVEVSVSGNEIHITAPEGISLEELIELIKKLFPGADIGEVSVEKLPDGRYVATFKAGFKPPSPDELSAG [r5_110_TrMRF],18.5 ± 1.05
6,SAGGMGSEKLPLTLTLPGDRKLEVTVYRVGDKLYVEIKLTHGSKPLGTLTVEADSLDEVLDAAKEAASAGGS [r16_55_TrMRF],11.6 ± 0.628
7,SAGGSAGGSAGGPKTVRIVEYDPETQRVVIELEDGSKVVIEVPPGMSVEELKGKTLTVEPSAGGSAGGSAGG [r7_296_TrROS_Hall],7.48 ± 0.213
8,SAGGSAGGKSYVRLEVYRRNPETDEWEKIRTEVLETDAASGEEVRRRALERVPEDYLVKVELFPSAGGSAGG [r6_623_TrMRF],8.41 ± 0.192
9,SAGGSSVLINHTKTFSSEEEAEKEAEELKEKAKKEGFDEVKVEISKDPSGGTYTLKVTIKKKLPPDLKSAGG [r19_92_JUSTAS],8.22 ± 0.326
10,SMKSKIEVKTVTFTFSPDDPLAKTPLEEIISEKAKKEGKKIEIPSYSYTSTDPAKGTKTYTFTVKIIKEESA [r9_107_JUSTAS],0.509 ± 0.669
11,SAGGSAGGSAPPNDWYVGIMEITININIDADQLPPPLREKFEKNGIKEIRITFVSVFPPDDFSAGGSAGGSA [r18_127_TrROS],11.5 ± 0.879
12,SAKKAEEIAEKVEKTIKEAAKEKGYDVNIKVKATKGKDGKVTVYIDFDSPENAKEFIEKLPKSVNVVIASAG [r14_491_TrMRF],5.44 ± 0.218
13,SAGAVELPPGVAAVERDPETGVVTATYPDGTVTRYTVSTEWDPTVGRTRPRVTVEVWSPDSRISTRDLPSAG [r5_109_JUSTAS],0.496 ± 1.3
14,SAGGSAGGKKKVIEITVKITLFNENGEEVATFEAKITIIEDKETKEYYAVITFKDGSTLVIKLPSAGGSAGG [r6_923_TrROS_Hall],15.4 ± 0.837
15,SAGGSAGGSAPGKSITITFLFIWPDGWILVMKITFDPDGPGDIDIEWQWIPIPPPEPPPEDPSAGGSAGGSA [r18_409_TrROS],15.1 ± 1.21
16,SAVTLLSTEFVPEEGVVRLLFERPAPPDTTTFTFSVSVNGYPIESISLSVDPATNTATATATAKVPPGLSAG [r14_244_JUSTAS],10.1 ± 0.669
17,SAGGSAGKIEIPLPELGEVREEPVPDTVRIEVRFPDGRVLEATVLKDDTIEIREKGTGKLVATLPASAGGSA [r15_656_TrMRF],6.01 ± 0.243
18,SAMPKPALTIEIPLPNGQTVRIDVYYDPETGTYTVNVTRTLPNGEPFTRTYTVESPEEAIKNIEVTDFGSAG [r14_749_TrMRF],13.8 ± 0.544
19,SAGGSASMGVSVAAIAEALDAARPAGAPPLVYVKLPNGEVVRVSPDESLTSISPEGEVEIEIRFLPSAGGSA [r15_50_JUSTAS],3.79 ± 0.0753
20,SAGGMELEKAIEFAKETGKEVEIEIEVEDENGKPFVIRVRVKVKPDPEDPNKYKIEVEVEVFPKEELSAGGS [r16_323_TrMRF],15.1 ± 0.795
21,SIRGMPPEVVLYIIRFFAREQKNKGMPPDDRPIEINIMMPNPEARKDAKKEIKEENPGIKDVKIEVMPPNSA [r9_341_TrROS],9.2 ± 0.46

# Experiment: folding stability dG unfold from chymotrypsin proteolysis; higher = more stable
# Procedure, shortened: as §1
row,Sequence,folding stability dG unfold [kJ/mol]
1,SAGGSAGGSAGGGSPIPTTTLTTVTYGSSSSLLSSAKGPSSVPYSLPSSLGSSVSTTVVGSAGGSAGGSAGG [r7_141_JUSTAS],-0.542 ± 1.21
2,SAGGSASVSDVTTTTVTVTVEVTEDPATGLQRLTATHPDLSFERLVPAGTIPADTTVTLDVTVTTGSAGGSA [r15_190_JUSTAS],1.89 ± 0.0586
3,SAGGSAGGSAGMTVPTSVEVSPDGTVRVRQLRWVRHGDGWRPFTFTVTLPISDDALKALKSAGGSAGGSAGG [r17_415_TrMRF],4.77 ± 0.247
4,SAGSIEIYIIYPPEDPDQPPTEEEIRSIARSLARQLGLPPKDFPIDVEWRRIDPEDGIYVYEITIEFPSAGG [r19_244_TrROS],14.9 ± 0.259
5,SAGGSAGGSAKKVIKAKILEVKVLPDGTGLVKLEGEDGLEVVIPLSILENISPDAIVTIEASAGGSAGGSAG [r3_315_TrMRF],7.51 ± 0.163
6,SMKVTLDGKGSVTTMPAEQLEVLIKELKEKGYKVKILSEEPDPNSDTVNYTIEITPPKPEKEEFENEELKSA [r9_448_JUSTAS],8.1 ± 0.502
7,SAGGSAGGSAGMVKLRFEVKFKIKLLGEGETNEVVEVDVKVEFEVTLPPFKVRPDGSLLESAGGSAGGSAGG [r11_558_TrMRF],18.4 ± 0.628
8,GEFVSVESVERLPDGTLVVKIKYKPPSPDTPVTVTVSHPDSSVTFTMDPTSSTITVTVPPSVSDVSVTVVGS [r1_428_JUSTAS],15 ± 0.502
9,SAGGSAGGSAGGSKKYKAKIVSVEYDEETKEVTIKVKLENGEEKTITMSLEELKEIELPSAGGSAGGSAGGS [r4_51_TrROS_Hall],13.2 ± 0.138
10,SAGPWRIKEVDPDSYTIEIRFGDRPIEIKIPPGKEPSIMIEMDPDGHFQLTIRVPDRTRTFTIPFDDIRSAG [r5_500_TrROS],2.47 ± 1.05
11,SAGGSAGGSAEKPPPPVVTLRVRVVVEVDGKLYVATAEVRLVDGKLEIRVRIEEVPPGAPVSAGGSAGGSAG [r3_49_TrROS_Hall],19.2 ± 0.92
12,SAGGSAGGSAMEITITVPKENEEEVLEAAKKALEELGIEEVKVEKLEDGTYKVTARVKPGLSAGGSAGGSAG [r3_335_TrROS_Hall],0.917 ± 0.586
13,SAGGSAGGSGNATVMLMFPIEISITVMEWDNGKPKMKTQEIEIWVMIMIPVPPPPDPGDPEWNSAGGSAGGS [r12_713_TrROS],17.1 ± 0.297
14,SAGTIVFSRDELKELGIPEDMTVEEIKQKILDRLKEEGYEVKITKIEVVEVDEEEGRVLVRITIEVKKPSAG [r5_23_TrROS_Hall],17.9 ± 0.544
15,SAGGSAGGMTPEEERRKKESPVPPVNKVTVKIPVPSSVSEEVAKEIAEKLEKESGAKKVEVILPSAGGSAGG [r6_517_JUSTAS],5.59 ± 0.41
16,SAGGSAGGEELAKRLKELFPNAKIVEIKYDKKTKKVTIKVELEPGMSEEQRERLRKLLEELLKKSAGGSAGG [r6_97_TrROS_Hall],11.9 ± 0.414
17,SAGMYLVKITVTNEDGEKKEITVLVEAETEEEAREAAEELARELAEKYPEKIVEVKVEVVKLPPEVEPSAGG [r19_335_TrROS_Hall],20 ± 0.669
18,SAGMKPGEVLTVEDIPPGALLRNPKGESLGPVVEVEVRALEDSVEAVVTFPDGSKATVTFPADDIVLDPSAG [r5_850_TrMRF],4.14 ± 0.879
19,SAGGMKIEVRPLPGDGFVVRLPGDVVALIDPSTGEAVAFFPDGSVARLTITRDPDRPEFTITIEPVGSAGGS [r8_186_TrMRF],7.9 ± 0.134
20,SAPVIEITEVTFNPDGSVEVTLVIPFPDDPEIPPEEIAKAIKEAFGFEEVTVEPIPETGAWRITLRAPGSAG [r14_228_TrMRF],17.5 ± 0.372
21,SAMANITANYYDPETGKVLAKDLPLPNGDEVHVTPNPVTGTVTVEWDGPEEALEVIKAALPPDWKIYPLSAG [r14_252_TrMRF],-0.32 ± 0.669

# Reference: the supplement of paper PMC12764529
